The values below come from publication PMC10003087, “VRK1 Kinase Activity Modulating Histone H4K16 Acetylation Inhibited by SIRT2 and VRK-IN-1” (International Journal of Molecular Sciences, 2023).

This assay concerns the target T1, GST-VRK1 (human, UniProt Q99986 1-396).
T1 sequence (looked up): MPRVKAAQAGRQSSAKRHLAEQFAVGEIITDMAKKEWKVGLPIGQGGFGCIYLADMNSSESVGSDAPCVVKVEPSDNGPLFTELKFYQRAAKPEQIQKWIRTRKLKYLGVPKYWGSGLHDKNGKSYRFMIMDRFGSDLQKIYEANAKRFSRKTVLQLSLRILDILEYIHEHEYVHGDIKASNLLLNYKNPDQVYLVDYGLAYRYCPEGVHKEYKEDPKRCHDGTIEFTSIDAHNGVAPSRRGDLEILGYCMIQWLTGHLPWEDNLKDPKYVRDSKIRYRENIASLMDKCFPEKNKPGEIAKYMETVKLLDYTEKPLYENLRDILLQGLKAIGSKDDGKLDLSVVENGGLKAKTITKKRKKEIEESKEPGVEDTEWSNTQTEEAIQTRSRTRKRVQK
Kind of assay: cell-based or functional assay.

B1: SIRT2-his (enzyme, human, UniProt Q8IXJ6 1-389, looked up)
chain: MAEPDPSHPLETQAGKVQEAQDSDSDSEGGAAGGEADMDFLRNLFSQTLSLGSQKERLLDELTLEGVARYMQSERCRRVICLVGAGISTSAGIPDFRSPSTGLYDNLEKYHLPYPEAIFEISYFKKHPEPFFALAKELYPGQFKPTICHYFMRLLKDKGLLLRCYTQNIDTLERIAGLEQEDLVEAHGTFYTSHCVSASCRHEYPLSWMKEKIFSEVTPKCEDCQSLVKPDIVFFGESLPARFFSCMQSDFLKVDLLLVMGTSLQVQPFASLISKAPLSTPRLLINKEKAGQSDPFLGMIMGLGGGMDFDSKKAYRDVAWLGECDQGCLALAELLGWKKELEDLVRREHASIDAQSGAGVPNPSTSASPKKSPPPAKDEARTTEREKPQ
Take B1: the “IC50 of SIRT2 for inhibition of VRK1 autophosphorylation (in vitro kinase assay, dose-dependent)” value turned out to be 190 nM and the “IC50 of SIRT2 for inhibition of the phosphorylation of histone H3 by VRK1 (in vitro kinase assay, dose-dependent)” value worked out at 150 nM.
